Kd data for 42 molecules are collected here from publication PMC9352680, “A comprehensive thermodynamic model for RNA binding by the Saccharomyces cerevisiae Pumilio protein PUF4”.

T1: PUF4 RNA-binding domain (Saccharomyces cerevisiae, UniProt P25339 537-888)
T1 sequence: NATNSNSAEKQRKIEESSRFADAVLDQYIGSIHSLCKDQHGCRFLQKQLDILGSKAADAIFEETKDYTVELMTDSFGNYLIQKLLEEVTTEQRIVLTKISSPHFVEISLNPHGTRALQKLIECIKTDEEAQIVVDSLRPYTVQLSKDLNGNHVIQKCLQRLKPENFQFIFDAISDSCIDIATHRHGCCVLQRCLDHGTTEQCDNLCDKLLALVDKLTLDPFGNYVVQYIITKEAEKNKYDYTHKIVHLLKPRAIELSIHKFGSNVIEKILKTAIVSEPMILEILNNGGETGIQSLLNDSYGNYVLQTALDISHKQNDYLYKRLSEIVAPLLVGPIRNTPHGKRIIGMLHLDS

B1: Ic_S2_P4E.1_K4.1_C4.1_H4.1_A4.1_[T5G]_[A6C]_[T7G]_F4.1_[T8C]_[A9C]_T4.1 (ssRNA)
RNA: UUUGAUUAAUAUGAUAUCGUUCUUUCUUGUAGCGCCUUCUUUCUCGAUAUCAUAUUAAUCUUU
B2: Ic_S2_P4E.1_K4.1_C4.1_H4.1_A4.1_[T5G]_[A6T]_[T7C]_F4.1_[T8G]_[A9T]_T4.1 (ssRNA)
RNA: B1 RNA with C33U, G34C, C35G, C36U
B3: Ic_S2_P4E.1_K4.1_C4.1_H4.1_A4.1_[T5G]_[A6T]_[T7G]_F4.1_[T8C]_[A9T]_T4.1 (ssRNA)
RNA: B1 RNA with C33U, C36U
B4: Ic_S2_P4E.1_K4.1_C4.1_H4.1_A4.1_[T5G]_[A6C]_[T7C]_F4.1_[T8G]_[A9C]_T4.1 (ssRNA)
RNA: B1 RNA with G34C, C35G
B5: Ic_S2_P4E.1_K4.1_C4.1_H4.1_A4.1_[T5G]_[A6T]_[T7C]_F4.1_[T8C]_[A9C]_T4.1 (ssRNA)
RNA: B1 RNA with C33U, G34C
B6: Ic_S2_P4E.1_K4.1_C4.1_H4.1_A4.1_[T5G]_[A6C]_F4.1_[A9C]_T4.1 (ssRNA)
RNA: B1 RNA with G34U, C35U
B7: Ic_S2_P4E.1_K4.1_C4.1_H4.1_A4.1_[T5G]_[A6T]_[T7C]_F4.1_[T8G]_[A9C]_T4.1 (ssRNA)
RNA: B1 RNA with C33U, G34C, C35G
B8: Ic_S2_P4E.1_K4.1_C4.1_H4.1_A4.1_[T5G]_[A6C]_F4.1_[A9T]_T4.1 (ssRNA)
RNA: B1 RNA with G34U, C35U, C36U
B9: Ic_S2_P4E.1_K4.1_C4.1_H4.1_A4.1_[T5G]_[A6T]_[T7C]_F4.1_T4.1 (ssRNA)
RNA: B1 RNA with C33U, G34C, C35U, C36A
B10: Ic_S2_P4E.1_K4.1_C4.1_H4.1_A4.1_[T5G]_[A6C]_F4.1_[T8G]_[A9G]_T4.1 (ssRNA)
RNA: B1 RNA with G34U, C35G, C36G
B11: Ic_S2_P4E.1_K4.1_C4.1_H4.1_A4.1_[T5G]_[A6C]_[T7G]_F4.1_T4.1 (ssRNA)
RNA: B1 RNA with C35U, C36A
B12: Ic_S2_P4E.1_K4.1_C4.1_H4.1_A4.1_[T5G]_[A6T]_[T7G]_F4.1_[T8C]_[A9G]_T4.1 (ssRNA)
RNA: B1 RNA with C33U, C36G
B13: Ic_S2_P4E.1_K4.1_C4.1_H4.1_A4.1_[T5G]_[A6C]_[T7A]_F4.1_[T8A]_T4.1 (ssRNA)
RNA: B1 RNA with G34A, C35A, C36A
B14: Ic_S2_P4E.1_K4.1_C4.1_H4.1_A4.1_[T5G]_[A6C]_[T7C]_F4.1_[A9T]_T4.1 (ssRNA)
RNA: B1 RNA with G34C, C35U, C36U
B15: Ic_S2_P4E.1_K4.1_C4.1_H4.1_A4.1_[T5G]_[A6C]_[T7C]_F4.1_T4.1 (ssRNA)
RNA: B1 RNA with G34C, C35U, C36A
B16: Ic_S2_P4E.1_K4.1_C4.1_H4.1_A4.1_[T5G]_[A6C]_[T7G]_F4.1_[A9C]_T4.1 (ssRNA)
RNA: B1 RNA with C35U
B17: Ic_S2_P4E.1_K4.1_C4.1_H4.1_A4.1_[T5G]_[A6C]_F4.1_[A9G]_T4.1 (ssRNA)
RNA: B1 RNA with G34U, C35U, C36G
B18: Ic_S2_P4E.1_K4.1_C4.1_H4.1_A4.1_[T5G]_[A6T]_[T7C]_F4.1_[A9T]_T4.1 (ssRNA)
RNA: B1 RNA with C33U, G34C, C35U, C36U
B19: Ic_S2_P4E.1_K4.1_C4.1_H4.1_A4.1_[T5G]_[A6C]_F4.1_[T8C]_T4.1 (ssRNA)
RNA: B1 RNA with G34U, C36A
B20: Ic_S2_P4E.1_K4.1_C4.1_H4.1_A4.1_[T5G]_[A6C]_[T7C]_F4.1_[T8C]_[A9G]_T4.1 (ssRNA)
RNA: B1 RNA with G34C, C36G
B21: Ic_S2_P4E.1_K4.1_C4.1_H4.1_A4.1_[T5G]_[A6C]_[T7C]_F4.1_[T8C]_T4.1 (ssRNA)
RNA: B1 RNA with G34C, C36A
B22: Ic_S2_P4E.1_K4.1_C4.1_H4.1_A4.1_[T5G]_[A6C]_[T7C]_F4.1_[A9G]_T4.1 (ssRNA)
RNA: B1 RNA with G34C, C35U, C36G
B23: Ic_S2_P4E.1_K4.1_C4.1_H4.1_A4.1_[T5G]_[A6T]_[T7C]_F4.1_[T8C]_T4.1 (ssRNA)
RNA: B1 RNA with C33U, G34C, C36A
B24: Ic_S2_P4E.1_K4.1_C4.1_H4.1_A4.1_[T5G]_[A6C]_[T7C]_F4.1_[T8C]_[A9T]_T4.1 (ssRNA)
RNA: B1 RNA with G34C, C36U
B25: Ic_S2_P4E.1_K4.1_C4.1_H4.1_A4.1_[T5G]_[A6C]_[T7A]_F4.1_[T8C]_T4.1 (ssRNA)
RNA: B1 RNA with G34A, C36A
B26: Ic_S2_P4E.1_K4.1_C4.1_H4.1_A4.1_[T5G]_[A6T]_[T7C]_F4.1_[A9C]_T4.1 (ssRNA)
RNA: B1 RNA with C33U, G34C, C35U
B27: Ic_S2_P4E.1_K4.1_C4.1_H4.1_A4.1_[T5G]_[A6C]_F4.1_[T8C]_[A9G]_T4.1 (ssRNA)
RNA: B1 RNA with G34U, C36G
B28: Ic_S2_P4E.1_K4.1_C4.1_H4.1_A4.1_[T5G]_[A6C]_F4.1_[T8A]_[A9G]_T4.1 (ssRNA)
RNA: B1 RNA with G34U, C35A, C36G
B29: Ic_S2_P4E.1_K4.1_C4.1_H4.1_A4.1_[T5G]_[A6C]_[T7C]_F4.1_[T8C]_[A9C]_T4.1 (ssRNA)
RNA: B1 RNA with G34C
B30: Ic_S2_P4E.1_K4.1_C4.1_H4.1_A4.1_[T5G]_[A6C]_[T7A]_F4.1_[A9T]_T4.1 (ssRNA)
RNA: B1 RNA with G34A, C35U, C36U
B31: Ic_S2_P4E.1_K4.1_C4.1_H4.1_A4.1_[T5G]_[A6T]_[T7C]_F4.1_[T8C]_[A9T]_T4.1 (ssRNA)
RNA: B1 RNA with C33U, G34C, C36U
B32: Ic_S2_P4E.1_K4.1_C4.1_H4.1_A4.1_[T5G]_[A6C]_[T7C]_F4.1_[T8A]_[A9C]_T4.1 (ssRNA)
RNA: B1 RNA with G34C, C35A
B33: Ic_S2_P4E.1_K4.1_C4.1_H4.1_A4.1_[T5G]_[A6C]_[T7A]_F4.1_[A9G]_T4.1 (ssRNA)
RNA: B1 RNA with G34A, C35U, C36G
B34: Ic_S2_P4E.1_K4.1_C4.1_H4.1_A4.1_[T5G]_[A6T]_[T7C]_F4.1_[T8C]_[A9G]_T4.1 (ssRNA)
RNA: B1 RNA with C33U, G34C, C36G
B35: Ic_S2_P4E.1_K4.1_C4.1_H4.1_A4.1_[T5G]_[A6C]_[T7C]_F4.1_[T8A]_[A9T]_T4.1 (ssRNA)
RNA: B1 RNA with G34C, C35A, C36U
B36: Ic_S2_P4E.1_K4.1_C4.1_H4.1_A4.1_[T5G]_[A6C]_[T7C]_F4.1_[T8A]_[A9G]_T4.1 (ssRNA)
RNA: B1 RNA with G34C, C35A, C36G
B37: Ic_S2_P4E.1_K4.1_C4.1_H4.1_A4.1_[T5G]_[A6C]_[T7A]_F4.1_T4.1 (ssRNA)
RNA: B1 RNA with G34A, C35U, C36A
B38: Ic_S2_P4E.1_K4.1_C4.1_H4.1_A4.1_[T5G]_[A6C]_F4.1_[T8A]_T4.1 (ssRNA)
RNA: B1 RNA with G34U, C35A, C36A

Where a chain is given by its changes, count along the chain named. Names may count otherwise.

The series has as its target T1, PUF4 RNA-binding domain. In words: Mg; RNA-MaP; 20 mM Na-HEPES pH 7.4, 30 mM KOAc, 0.75 mM MgCl2, 0.1% Tween-20, 5% glycerol, 0.1 mg/mL BSA, 2 mM DTT; 25 C; 0.0125-409.6 nM protein. Conditions: tags: N-His6-TEV cleaved; C-SNAP kept, Cy3B-labelled; label: tethered on chip by stalled RNA polymerase.
The term Kd denotes the equilibrium constant for the complex coming apart. UCUCUUUGUUCAUAUCUCUU (ssRNA) [Ib_S1_P3E.1_K3.1_C3.1_H3.1_[A4T]_A3.1_[T5C]_F3.1_T3.1] showed a dissociation constant (Kd) of 682 nM. That is a sub-micromolar value.

On to UCUCUUUGCAUGUAUCUCUU (ssRNA) [Ib_S1_P3E.1_K3.1_C3.1_H3.1_[T3C]_A3.1_[A6G]_F3.1_T3.1], for which binding was put at a Kd of 535 nM.

For the molecule UCUCUUUGCAAAUAUCUCUU (ssRNA) [Ib_S1_P3E.1_K3.1_C3.1_H3.1_[T3C]_A3.1_[T5A]_F3.1_T3.1], the equilibrium dissociation constant (Kd) was > 2300 nM.

On to B1, for which the equilibrium dissociation constant (Kd) was 750 nM.

Molecule B2 had a Kd of 288 nM.

On to B3, for which binding was characterised by a dissociation constant (Kd) of 478 nM.

In the case of B4, the Kd is > 2300 nM.

B5 displayed a Kd of 473 nM.

Molecule B6 yielded a dissociation constant Kd of 52.2 nM. This Kd lies about 9.1-fold lower than the previous one.

The molecule B7 gave a Kd of 598 nM.

Take B8: the Kd worked out at 30.4 nM. Against the preceding molecule, the Kd is about 20-fold lower.

For B9, the dissociation constant Kd amounted to 4.56 nM. Against the preceding molecule, the Kd is about 6.7-fold lower.

Molecule B10 came in with a dissociation constant (Kd) of 709 nM.

As for B11, the dissociation constant (Kd) was 9.8 nM.

Molecule B12 returned a Kd of 651 nM.

As to B13, the dissociation constant Kd worked out at 360 nM.

Consider B14, for which binding was put at a Kd of 48 nM.

Take B15: the Kd is 5.95 nM. Against the preceding molecule, the Kd is about 8.1-fold lower.

B16 returned a Kd of 782 nM.

In turn, B17 displayed a Kd of 208 nM.

B18 showed a Kd of 41.9 nM.

As to B19, the affinity, expressed as Kd, was 266 nM.

As for B20, the dissociation constant (Kd) came to 1680 nM.

Consider B21, for which binding was put at a Kd of 1090 nM. This Kd lies about 1.5-fold lower than the previous one.

For B22, binding was put at a Kd of 300 nM. Compared with the last molecule, the Kd is about 3.6-fold lower.

As for B23, the Kd came to 527 nM.

B24: binding was characterised by a dissociation constant (Kd) of 614 nM.

Take B25: the dissociation constant Kd was found to be 828 nM.

As to B26, the Kd was determined as 149 nM. This Kd is about 5.6-fold lower than that of the molecule before.

As to B27, the Kd was 988 nM.

Take B28: the affinity, expressed as Kd, was 846 nM.

For B29, binding was characterised by a dissociation constant (Kd) of 685 nM.

B30 yielded a dissociation constant Kd of 9.32 nM.

On to B31, for which the dissociation constant (Kd) is 121 nM.

For the molecule B32, the Kd was 1280 nM.

B33 displayed a Kd of 27.6 nM.

The molecule B34 registered a Kd of 732 nM.

Regarding B35, binding was put at a Kd of 402 nM. This Kd is about 1.8-fold lower than that of the molecule before.

Consider B36, for which the Kd was > 2300 nM.

Molecule B37 displayed a Kd of 1.41 nM. In other words, the single-digit nanomolar range.

For the molecule B38, the Kd turned out to be 111 nM.

On to UCUCUUUAUAUUUAUCUCUU (ssRNA) [Ib_S1_P3E.1_K3.1_C3.1_H3.1_[G2A]_A3.1_[A6T]_F3.1_T3.1], for which the dissociation constant (Kd) is > 2300 nM.
